{
  "source": "paper PMC3798688",
  "about": "“A Structural Basis for BRD2/4-Mediated Host Chromatin Interaction and Oligomer Assembly of Kaposi Sarcoma-Associated Herpesvirus and Murine Gammaherpesvirus LANA Proteins” (PLoS Pathogens, 2013)",
  "binders": {"B1": {"name": "kLANA(996–1153) (domain or fragment)", "chain": "GSGVRMRRVPVTHPKKPHPRYQQPPVPYRQIDDCPAKARPQHIFYRRFLGKDGRRDPKCQWKFAVIFWGNDPYGLKKLSQAFQFGGVKAGPVSCLPHPGPDQSPITYCVYVYCQNKDTSKKVQMARLAWEASHPLAGNLQSSIVKFKKPLPLTQPGENQG", "notes": "source: E. coli BL21(DE3), purified (Ni-NTA with guanidine gradient, thrombin cleavage)"}, "B2": {"name": "kLANA(1013–1149) (domain or fragment)", "chain": "GSRYQQPPVPYRQIDDCPAKARPQHIFYRRFLGKDGRRDPKCQWKFAVIFWGNDPYGLKKLSQAFQFGGVKAGPVSCLPHPGPDQSPITYCVYVYCQNKDTSKKVQMARLAWEASHPLAGNLQSSIVKFKKPLPLTQPG", "notes": "as for B1"}, "B3": {"name": "15N-BRD2 ET(632–713), with N-terminal GSGS (domain or fragment)", "chain": "GSGSDSEEEEESRPMSYDEKRQLSLDINKLPGEKLGRVVHIIQAREPSLRDSNPEEIEIDFETLKPSTLRELERYVLSCLRKKPRK", "notes": "also called 15N-BRD2(632–713); source: E. coli BL21(DE3), purified (Ni-NTA with guanidine gradient, thrombin cleavage)"}, "B4": {"name": "mLANA(124–260) (domain or fragment)", "chain": "GSKRYSRYQKPHNPSDPLPKKYQGMRRHLQVTAPRLFDPEGHPPTHFKSAVMFSSTHPYTLNKLHKCIQSKHVLSTPVSCLPLVPGTTQQCVTYYLLSFVEDKKQAKKLKRVVLAYCEKYHSSVEGTIVKAKPYFPLPE", "notes": "as for B1"}},
  "key": {"crystal structure": {"molecular_target": "the molecule itself", "assay": "crystal structure"}, "[1]": {"molecular_target": "the molecule itself", "assay": "asymmetric field flow fractionation with multi-angle static light scattering; 40 µg protein per run; 10 mM bis-tris-Cl pH 6.5, 50 mM NaCl, 0.01% NaN3"}, "kLANA(996–1153)": {"molecular_target": "B1", "assay": "NMR titration", "conditions": "both partners purified"}},
  "data": [
    {"binder": "B1", "values": [
      {"measurement": "stoichiometry N", "setting": "crystal structure", "value": 8}
    ]},
    {"binder": "B2", "values": [
      {"measurement": "stoichiometry N", "setting": "crystal structure", "value": 10},
      {"measurement": "stoichiometry N", "setting": "[1]", "value": 2}
    ]},
    {"binder": "B3", "values": [
      {"measurement": "binding result", "setting": "kLANA(996–1153)", "value": "binds"}
    ]},
    {"binder": "B4", "values": [
      {"measurement": "stoichiometry N", "setting": "crystal structure", "value": 2}
    ]}
  ]
}
